# According to patent publication US20240294570:
# Key:
# [1] = tested on: T1, L-phosphopentapeptide 5, NBD-βA-LLLLpY
# T1 sequence: XLLLLX
# [2] = tested on: T2, phosphopentapeptide 9, NBD-βA-llllpY
# T2 sequence: LLLLY
# [3] = tested on: T3, phosphopeptide 3, NBD-βA-LLLpY
# T3 sequence: XLLLX
# [4] = tested on: T4, phosphopentapeptide 7, NBD-βA-LLpYLL
# T4 sequence: XLLXLL
substance,measurement,setting,value
"Alkaline phosphatase (Biomatik, Cat. No. A1130)","conversion of 5 to 6 after 1 hour, 0.1 U/mL ALP",[1],"After 1 hour of incubation, 32.7% of 5 turns into 6"
same,"conversion of 5 to 6 after 2 hours, 0.1 U/mL ALP",[1],"After 2 hours of incubation of 5 with 0.1 U/mL of ALP, 49.6% of 5 becomes 6"
same,"dephosphorylation ratio after 5 hours, 400 µM of 5, 0.5 U/mL ALP",[1],"After 5 hours of incubation, 400 µM of 5 results in a dephosphorylation ratio of 93.8%"
same,"final dephosphorylation ratio, 5 (400 µM), 0.1 U/mL ALP",[1],the final dephosphorylation ratio is 69.1%
same,"fraction of 5 hydrolyzed at 40 minutes, 0.1 U/mL ALP",[1],"At the time point 40 minutes, about 24% of 5 is hydrolyzed by ALP"
same,"conversion ratio of 9 to 10 after 5 hours, 0.5 U/mL ALP",[2],"After 5 hours of incubation, the conversion ratio of 9 to 10 is 93.3%"
same,dephosphorylation catalyzed by ALP,[3],3 is able to turn into 4 upon dephosphorylation catalyzed by ALP
same,"conversion ratio of 7 to 8 after 5 h, 0.5 U/mL ALP",[4],"After 5 h of incubation, the conversion ratio of 7 to 8 is 61.5%"
